Assay [1] deals with T1, ErbB4 K751A bait (cytoplasmic domain, mutation in the ATP binding site) (human, UniProt Q15303 676-1308).
T1 construct: not shown: fusion partner encoded by the bait vector
As to the kind of experiment: yeast two-hybrid growth assay. The text has this: (§1) To characterize components of the NRG1 signaling pathway downstream of the ErbB4 receptor tyrosine kinase, the predominant neuronal receptor for NRG1, the cytoplasmic domain of ErbB4 was used as a bait in a yeast two-hybrid interaction screen. The ErbB4 bait was created by cloning the entire cytoplasmic domain into the vector pGBKT7 (Clontech, Palo Alto, Calif.) using homologous recombination in the yeast strain AH109 (Clontech, Palo Alto, Calif.). Liner vector and the cytoplasmic fragment of ErbB4 were transfected into the yeast strain using the lithium acetate (LiAc) method and plated onto […] negative selection media plates. Plasmid DNA was isolated from positive colonies and the presence of ErbB4 was verified by sequencing.
(§2) The ErbB4 bait was capable of tyrosine auto-phosphorylation in yeast cells. Tyrosine phosphorylation was absent from ErbB4 baits which contained mutations in the ATP binding site (K751A) or the catalytic site (D843A). Homo sapiens random prime hippocampus cDNA library was created using the ZAP-cDNA Gigapack III Gold Cloning Kit (Stratagene) and transformed into yeast using Li Acetate. Screening of a human hippocampus cDNA library yielded a partial cDNA clone comprising the SH2 and SH3 domains of Fyn (amino acids 60-252 of SEQ ID NO: 3). SH2 domains are protein modules able to bind phosphorylated tyrosine residues. […]

For assay [2], the target named is T2, ErbB4 D843A bait (cytoplasmic domain, mutation in the catalytic site) (human, UniProt Q15303 676-1308).
T2 construct: not shown: fusion partner encoded by the bait vector
As to the kind of experiment: yeast two-hybrid growth assay.
From the text: as §1, §2

B1: partial cDNA clone comprising the SH2 and SH3 domains of Fyn (amino acids 60-252) (enzyme)
chain: not shown
notes: The clone came from a human hippocampus cDNA library; also called Fyn clone; p59Fyn; not shown: fusion partner of the yeast two-hybrid library (prey) vector
Regarding B1, the binding result in assay [1] and in assay [2] was “no binding” each time.

The values above are taken from patent publication US20060029546A1 (DECODE GENETICS, published 2006).
